According to PMC11310373, “Development of a microbial dewaxing agent using three spore forming bacteria” (Bioresources and Bioprocessing, 2024):
Positions count from the first letter of the chain named. Names and notes keep the numbering of the source.

B1: LadA (alkane monooxygenase) (Geobacillus thermodenitrificans NG80-2) (protein)
chain: MTKKIHINAFEMNCVGHIAHGLWRHPENQRHRYTDLNYWTELAQLLEKGKFDALFLADVVGIYDVYRQSRDTAVREAVQIPVNDPLMLISAMAYVTKHLAFAVTFSTTYEHPYGHARRMSTLDHLTKGRIAWNVVTSHLPSADKNFGIKKILEHDERYDLADEYLEVCYKLWEGSWEDNAVIRDIENNIYTDPSKVHEINHSGKYFEVPGPHLCEPSPQRTPVIYQAGMSERGREFAAKHAECVFLGGKDVETLKFFVDDIRKRAKKYGRNPDHIKMFAGICVIVGKTHDEAMEKLNSFQKYWSLEGHLAHYGGGTGYDLSKYSSNDYIGSISVGEIINNMSKLDGKWFKLSVGTPKKVADEMQYLVEEAGIDGFNLVQYVSPGTFVDFIELVVPELQKRGLYRVDYEEGTYREKLFGKGNYRLPDDHIAARYRNISSNV
B2: LadA (alkane monooxygenase) (Geobacillus thermodenitrificans NG80-2; F10L) (protein)
chain: B1 chain with F10L
B3: LadA (alkane monooxygenase) (Geobacillus thermodenitrificans NG80-2; F10L/N133R) (protein)
chain: B1 chain with F10L, N133R

Substrate: CCCCCCCCCCCCCCCCCC
Assay: NADPH consumption, Lineweaver-Burk
Format: biochemical, Geobacillus thermodenitrificans
Conditions: 10 mM NADPH, 0.015% Triton X-100, 50 mM Tris-HCl pH 8.0, 60 °C
From the text: NADPH consumption, Lineweaver-Burk on LadA (alkane monooxygenase)

Protein	Km	kcat	kcat/Km
B1	10360 ± 1600 µM	0.0297 ± 0.0033 s⁻¹	2.83 M⁻¹ s⁻¹
B2	6980 ± 500 µM	0.036 ± 0.005 s⁻¹	5.17 M⁻¹ s⁻¹
B3	2040 ± 200 µM	0.0737 ± 0.01 s⁻¹	36.2 M⁻¹ s⁻¹

Substrate: Cc1cc2nc3c(=O)[nH]c(=O)nc-3n(C[C@H](O)[C@H](O)[C@H](O)COP(=O)(O)O)c2cc1C
Assay: purified protein
Format: biochemical, Geobacillus thermodenitrificans
Conditions: FMN added to octadecane/NADPH mixture, FMNH2 consumption followed at A455, pH 8.0, 60 °C, varied: cofactor

Protein	Km
B1	3.3 ± 0.2 µM
B2	3.1 ± 0.3 µM
B3	3.9 ± 0.3 µM
